# T1: human BTLA ECD-his (monomeric human BTLA-his) (human, UniProt Q7Z6A9 31-157)
# T1 construct: extracellular domain; also called human BTLA extracellular domain
# T1 sequence (looked up): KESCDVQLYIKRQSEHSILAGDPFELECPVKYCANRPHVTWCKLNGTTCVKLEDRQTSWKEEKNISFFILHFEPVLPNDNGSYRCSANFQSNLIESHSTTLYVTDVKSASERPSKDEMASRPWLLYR
# Key:
# [1] = target: β-galactosidase enzyme donor (ED)-tagged human BTLA on Jurkat cells (human, UniProt Q7Z6A9 31-289); assay: cell-based or functional assay
# [2] = target: T2, human BTLA on cells (stably transfected 293c18 cells; human peripheral blood T and B cells) (human, UniProt Q7Z6A9 31-289); assay: flow cytometry, DyLight 650-labeled 6G3 IgG4 on human peripheral blood CD4+ T cells
# T2 construct: whole, on cells; the cells are named under assay; also called cell surface BTLA; full-length human BTLA
# Experimental: PBMCs were washed and incubated at 2×10⁷ cells/ml in FACS buffer (PBS, 1% BSA, 0.02% sodium azide) with Human BD Fc Block (2.5 μg/1×10⁶ cells, BD Biosciences) and LIVE/DEAD® Fixable Yellow Dead Cell Stain (30 μl, ThermoFisher Scientific) for 10 minutes on ice. Cells were washed once in FACS buffer, resuspended in FACS buffer at 1×10⁷ cells/ml and the following phenotyping antibodies added: Alexa Fluor 488-anti-human CD3E clone SK7, Brilliant Violet 421-anti-human CD4 clone OKT4, Brilliant Violet 785-anti-human CD8 clone SK1, and Brilliant Violet 570-anti-human CD20 clone 2H7 (50 μl each; all from BioLegend, Inc.). […] Samples were washed twice in FACS buffer, resuspended in 150 μl/well FACS buffer, and analyzed for fluorescence on a NovoCyte Flow Cytometer (ACEA Biosciences, Inc.). Data were analyzed using NovoExpress Software (ACEA Biosciences, Inc.). Median fluorescence intensities of anti-BTLA or isotype staining on gated CD4⁺ T cells (FIG. 4), CD8⁺ T cells (FIG. 4), or CD20⁺ B cells (FIG. 4) were graphed and curves fit with log(agonist) vs. response (three parameters) least squares fit for EC₅₀ calculation in GraphPad Prism (GraphPad Software, Inc.).
# [3] = target: T1, human BTLA ECD-his (monomeric human …); assay: SPR, Biacore T200, antibody captured on anti-human IgG, monomeric human BTLA-his as analyte, 25 °C, 1:1 model; 6G3 IgG4 (APE10840.05) captured on the chip; human BTLA-his analyte
# Experimental: Surface plasmon resonance (SPR) analyses were carried out using a Biacore T200 (GE Healthcare Life Sciences). Kinetic constants were determined using a 1:1 binding model in the Biacore T200 Evaluation Software to calculate on- and off-rates (kₐ and kd, respectively), and dissociation constants as a measure of overall affinity (KD). Anti-human IgG (GE Healthcare Life Sciences) was immobilized on a CMS chip using EDC-activated amine coupling chemistry (420 seconds contact at a flow rate of 10 μl/min). Antibodies (APE10585.04 6G3 IgG1 and APE10840.05 6G3 IgG4), each at 0.5 μg/m1) were captured in a 60 second contact with the flow cell using a flow rate of 10 μl/min. Monomeric human BTLA-his or cynomolgus monkey BTLA-his at 60 nM, 20 nM, 6.7 nM and 2.2 nM concentrations was flowed over captured antibody (480 seconds association, 1800 seconds dissociation). Runs were at 25° C. and used buffer containing 10 mM HEPES, pH 7.6, 150 mM NaCl, 3 mM EDTA, 0.05% polysorbate 20 (HBS-EP+, pH 7.6; Teknova) for the mobile phase and all dilutions. At the end of each cycle, bound antigen was removed by regeneration with two successive exposures (60 seconds and 90 seconds) to 3 M MgCl2 (30 μl/min). Sensorgrams and binding constants corresponding to the experiment are shown in FIG. 1 (human BTLA) and FIG. 1 (cynomolgus monkey BTLA). […]
binder,measurement,setting,value
"6G3 IgG4 anti-BTLA antibody (APE10840 / APE12839 / APE13308) (antibody, V domains shown, Humanized antibody from a mouse hybridoma, tested as human IgG4 (detected with anti-human kappa); Some assays used labelled lots (DyLight 650, AF647, biotin, DyL488); also called 6G3 antibody; APE10840.03) VH: QVQLVQSGAEVKKPGSSVKVSCKASGYVFSTSWMNWVRQAPGQGLEWMGRIYPGDADTNYVGKFKGRVTITADKSTTTAYMELSSLRSEDTAVYFCAKSGTFNFGNYRWYFDVWGKGTTVTVSS VL: AIQLTQSPSSLSASVGDRVTITCRVSENIYSHLAWYQQKPGKAPKLLIYAATNLALGVPSRFSGSGSGTDYTLTISSLQPEDFATYYCQLFWGPPLTFGGGTKVEIKR","EC50, SHP2 recruitment PathHunter Jurkat BTLA signaling assay with U-2 OS hFcγRIa cells",[1],9.3 ng/mL
same,"EC50, SHP2 recruitment PathHunter Jurkat BTLA signaling assay, soluble antibody",[1],125 ng/mL
same,fold increase of agonist potency with cell-associated FcγRIa against the assay without FcγRIa,[1],~13 fold
same,EC50,[2],~2.4 nM
same,Kd,[3],~5 nM

# Source: US20230391872A1 (ANAPTYSBIO, published 2023)
